B1: TPR 5TU (parent)
chain: GGAUCUUCUCGAUCUAACAAAAAAGACAAAUCUGCCACAAAGCUUGAGAGCAUCUUCGGAUGCAGAGGCGGCAGCCUUCGGUGGCGCGAUAGCGCCAACGUUCUCAACUAUGACACGCAAAACGCGUGCUCCGUUGAAUGGAGUUUAUCAUG

Variants at the floor of the assay were thinned out.

The variants in the series derive from B1. The series can be described thus: polymerase ribozyme fitness, log enrichment relative to wild type (log ratio); higher = more active; in vitro selection for triplet polymerase activity. In short, it runs like this:
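After PCR construction and transcription, each subunit's mutant library from a heterodimeric triplet polymerase ribozyme was annealed with a biotinylated primer, the partner subunit and triplets. Incubation was frozen, at −7 °C, and extended constructs were gel-excised, bound to streptavidin beads and amplified by RT-PCR, in one selection round done in triplicate. Fitness is the logarithm of a genotype's enrichment divided by that of the wild type, from inverse-variance-weighted replicate averages of Illumina-sequenced inputs and outputs. The base of the logarithm is 2, and genotypes needed ≥10 input reads and ≥1 read per output.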
With U15C A49G C85U U109G, the “polymerase ribozyme fitness (log ratio)” value was -0.987.
Next, A16C A49U C85A G126U U139G: -3.47; A16C C85U C95A C132U: -3.71.
Take U15G C96U: the “polymerase ribozyme fitness (log ratio)” value is -1.19.
Next, U15G C96A: -0.302; U15G C51A C93A G124U U145A: -3.28; A16G A22U A47C C95A C96U: -3.89.
Next, U15A A60G G80U C96U A122C: -1.4.
Turning to U15G A26U A52G G83A U102G, the “polymerase ribozyme fitness (log ratio)” value was at most -4.2.
Regarding A16C A40U C93A A122G G141C, the “polymerase ribozyme fitness (log ratio)” value is at most -4.2.
In the case of U15G A60G C87G C103G A147C it was at most -4.2; in that of U15C U53A A98G C105G U146G, at most -4.2; in that of U15A G25C A29C G48C A64U C93U C95A C149A, at most -4.2.
For U15A G94A, the “polymerase ribozyme fitness (log ratio)” value is -0.258.
Next, A16C U31A C32A G92C A97C A98C C103A C116U C125U: at most -4.2; U15A A26C G34U C105G G143C: at most -4.2.
For the variant A16C G84U A120G, the “polymerase ribozyme fitness (log ratio)” value was -2.78.
Next, U15G A39U C72U A91U A147U A150C: at most -4.2; U15G C43U G59A G94U: at most -4.2; U15G U31A: 0.571.
Next, U15G U55G G71C C85U A142U C149U: at most -4.2.
Next, A16C A24G A73C A121G: at most -4.2; A16G A22G C27A A49C C57U G59C C85U C118A C129U: at most -4.2.
Turning to U15G G88A, the “polymerase ribozyme fitness (log ratio)” value was -4.08.
As to A16C U56A C103A G124U G143C, the “polymerase ribozyme fitness (log ratio)” value is at most -4.2.
As for U15G U77A U78G G88U C149G, the “polymerase ribozyme fitness (log ratio)” value was at most -4.2.
Next, U15G C85U: -0.0947; U15G G94C A115C C116G: -3.85.
In the case of U15G A20C G42U A52G C85U C93G C103A it was at most -4.2.
For A16C C36U G59C, the “polymerase ribozyme fitness (log ratio)” value was -2.53.
With A16G A20U C32A U45A A47C G83C C93G G140A, the “polymerase ribozyme fitness (log ratio)” value was at most -4.2.
Next, U15G C27A U146A: at most -4.2; A16C U101G U127A: -3.71.
In the case of A16C G42U U56C G81U C85G it was at most -4.2; in that of A16C U61A A89G C118A C149G, at most -4.2; in that of U15G G94C C96U U111A G152A, at most -4.2.
Next, A16G A19G G84U A122U: -3.73.
Consider U15A A19U C57G G86A, for which the “polymerase ribozyme fitness (log ratio)” value was -1.7.
Next, A16C U45G C114U: -3.74; A16C G141A: -0.406; U15G A40G C96U A97G G141A: -3.18.
A16C G94A C116G: the “polymerase ribozyme fitness (log ratio)” value was -0.496.
Next, U15G A21C A49C C54U G86A: at most -4.2.
For A16C C18U C38U A39C A49U G67A U134G, the “polymerase ribozyme fitness (log ratio)” value is at most -4.2.
Consider U15G C103A, for which the “polymerase ribozyme fitness (log ratio)” value is -1.91.
Next, A16C A73U G88C C95G A98U: at most -4.2.
In the case of U15G A26G A52U U53A G65A G80U C87G C96G A97G C108G it was at most -4.2; in that of U15C A20U A41U C57G A98G, -1.74.
In the case of U15C A21C U56C G83A it was -0.11.
Take U15C A22G A47C U55A G88C U139C: the “polymerase ribozyme fitness (log ratio)” value was at most -4.2.
In the case of A16G A19C G80C C87A A150U it was at most -4.2; in that of U15A U55A G88C U145G, -3.86; in that of A16C A21C C57A G88U C103G U130G, at most -4.2.
In the case of U15C A22G G42A G84A G133U it was at most -4.2; in that of A16C C32U, -2.43.
For the variant A16G A17G U56G U61G G68A C72U C114G G143U, the “polymerase ribozyme fitness (log ratio)” value is at most -4.2.
In the case of A16C G83A G94A it was -2.79.
Next, A16C G58C A60G G83U C116U: -0.784.
Take U15A G25A G42C C79A: the “polymerase ribozyme fitness (log ratio)” value was at most -4.2.
U15G U82C G94A: the “polymerase ribozyme fitness (log ratio)” value was -1.01.
In the case of C14U U55A U56A C76A it was -2.4; in that of A16C A26U G42U A47C U55A U90G A98G, at most -4.2; in that of A16C U31C A37C A40C C95G G100A C114U, at most -4.2.
In the case of U15C C93U A122U it was -0.873; in that of A16G A17U A41U C93U C125U U134G, -4.05; in that of U15G A21U A39G A47G G83A A142G, -3.92.
Regarding U15C A19C A91U, the “polymerase ribozyme fitness (log ratio)” value was -3.68.
Take U15G A49C G65C A120C A142C: the “polymerase ribozyme fitness (log ratio)” value was at most -4.2.
Next, U15C A17U A60G G62C A91U: at most -4.2; U15A C32A U56G G58U G84U C108U U139G: at most -4.2; U15G A73U C93U A120G: -2.43.
Next, A16C C57U A60G G86U C125U U134G: -4.12; U15G A28U G46C C57U C85A G86U U90A C95U C105U: at most -4.2.
In the case of A16C A20U A28U C35A G50U G59C G84A C87G C96U C103A U148A it was at most -4.2.
In the case of A16C C57U C129U G143A, the “polymerase ribozyme fitness (log ratio)” value was -1.91.
Next, A16G A20C C35A U44A A47G C129U G140C: at most -4.2; U15G G46U G65A G68C C85U C116G: at most -4.2; U15G A16C A30C A47C C85A G133C G143C A150U: at most -4.2.
As to U15G C132A, the “polymerase ribozyme fitness (log ratio)” value is -2.26.
Next, U15A A39U C96U C114A A122G C123U C125A: -4.11; U15G A19U A91U: -3.99; U15G C51U G86U A89U C114U: at most -4.2.
Next, A16C U44A C69G C75G A91U C114G G117C: at most -4.2.

The values above are taken from the RNAGym collection of RNA variant scans (doi:10.1073/pnas.2313332121).
